Measurements reported in patent publication US6753157B2, “Quantitation of individual protein kinase activity” (Promega Corporation, priority 1994, dated 2004).
Ends that are not written are not given here. * marks the point of attachment. biotin C6 = biotin C6 moiety, O=C(CCCC[C@@H]1SC[C@@H]2NC(=O)N[C@@H]21)NCCCCCC(=O)*

How the values were obtained:
[1] = tested on: Ca2+ and phospholipid dependent protein kinase (PKC); test: Protein kinase activity of Ca2+ and phospholipid dependent protein kinase with biotinylated neurogranin(28-43), streptavidin-linked disk, 32P; format: biochemical
Protocol: The protein kinase activity of Ca^2+ and phospholipid dependent protein kinase activity (PKC) was determined in a similar manner to that of PKA described above, except that the biotinylated peptide substrate was a derivative of neurogranin; namely, biotinylated neurogranin(28-43) Chen, S-J, et al., 1993.
The peptide was modified by the addition of biotin containing moiety: *-Ala-Ala-Lys-Ile-Gln-Ala-Ser-Phe-Arg-Gly-His-Met-Ala-Arg-Lys-Lys (Promega Peptide B, SEQ. ID. 2, Mol.Wt. is 2139.6), and was used at a concentration of 100 μM. The enzyme (#V5261, Promega Corporation) was diluted 5× in 100 μg/ml of BSA.
The kinase activity of the […] was determined in a reaction volume of 50 μL consisting of 40 mM Tris. HCl, pH 7.4, 10 mM MgCl2, BSA at 100 μg/ml, and 100 μM of τ-^32P-ATP (sp.act. of 100 cpm/pmol). The activity was determined in the presence and absence of 100 μg/ml of phosphatidylserine, 10 μg/ml of diacylglycerol and 0.4 mM calcium chloride. Reaction was started with the addition of 5 μL of the enzyme and incubated at 25° C. After specified periods of time, reactions were terminated by the addition of 10 μL of terminating solution (see above). Twenty-five μL aliquots were aliquoted on disks and the disks were processed as described above for PKA.

[2] = target: T1, cAMP-dependent protein kinase (PKA) (Bos taurus, UniProt P00517); test: Kinase activity of cAMP-dependent protein kinase with biotinylated peptide substrate, streptavidin-linked disk, 32P; format: biochemical; settings: PKA 2 Kemptide units per reaction, 100 μM ATP, 37° C., FIG. 3
T1 construct: V5161 (general description)
Protocol: The kinase activity of cAMP-dependent protein kinase (PKA) was carried out in duplicates at each of the various peptide substrate concentrations, in a reaction volume (50 μL) containing 40 mM Tris HCl, pH 7.4, 20 mM MgCl2, 100 μM τ-^32P-ATP (sp.act.of 100-200 cpm/pmol), 100 μg/ml of bovine serum albumin (BSA), and the appropriate biotinylated peptide substrate: *-Leu-Arg-Arg-Ala-Ser-Leu-Gly (Promega Peptide A, SEQ. ID. 1, M.Wt of 998.4).
The reaction was started by addition of the appropriate amount of enzyme (Promega #V5221) to give 2 Kemptide units and incubated for 0, 5, and 10 minutes at 37° C. (one Kemptide unit is defined as the amount of enzyme required to catalyze the incorporation of 1 pmol of phosphate into Kemptide substrate in 1 minute). At specified periods of time at the appropriate temperature, the reaction was terminated with the addition of 10 μL of terminating solution as described above.
Twenty-five μL aliquots were withdrawn and spotted in a 12.5 mm (i.d.) streptavidin-linked disk (0.5 mg of streptavidin/disk) and placed in 2M NaCl-containing beaker. After one minute of gently swirling the beaker at room temperature, fresh NaCl was added. This washing procedure was repeated 5 more times at one minute each. […]
Enzyme activity was calculated by determining the radioactivity via liquid scintillation spectrometry. […]

[3] = tested on: T2, biotinylated neurogranin(28-43) (Promega Peptide B, *-Ala-Ala-Lys-Ile-Gln-Ala-Ser-Phe-Arg-Gly-His-Met-Ala-Arg-Lys-Lys)
T2 sequence: AAKIQASFRGHMARKK

[4] = tested on: T3, biotinylated Promega Peptide A (*-Leu-Arg-Arg-Ala-Ser-Leu-Gly)
T3 sequence: LRRASLG

*-Ala-Ala-Lys-Ile-Gln-Ala-Ser-Phe-Arg-Gly-His-Met-Ala-Arg-Lys-Lys ({biotin C6}-AAKIQASFRGHMARKK) [Promega Peptide B, N-terminal Biotin C6 neurogranin-derived peptide substrate for PKC]
substrate concentration at which enzyme activity reached a maximum ([1]; PKC, 25° C., FIG. 7): around 100 μM
PKC activity relative to activity assayed with the phosphocellulose paper method ([1]; biotinylated substrate/streptavidin matrix versus unmodified peptide/phosphocellulose paper): 6-7 fold

*-Leu-Arg-Arg-Ala-Ser-Leu-Gly ({biotin C6}-LRRASLG) [Promega Peptide A, N-terminal Biotin C6 peptide substrate for PKA]
Km [2]: 33 µM
Vmax value [2]: 1.45 pmol/min

Ca2+ and phospholipid dependent protein kinase (PKC) (#V5261, Promega Corporation)
substrate concentration at which kinase activity reached a maximum [3]: the activity of the enzyme reached a maximum around 100 µM of modified substrate

cAMP-dependent protein kinase (PKA), purified enzyme (Promega #V5221)
Km (kinase activity, 32P incorporation into biotinylated peptide captured on streptavidin disks) [4]: a Km Value for the substrate of 33 µM
